The record followed here is paper PMC8168301.

For series [1], the target named is N NTD-LKR-CTD-Carm (SARS-CoV-2, UniProt P0DTC9 44-419). The experiment in a line: fluorescence polarization. In general terms: In fluorescence polarisation assays a small probe gives low polarisation when free and higher when bound to something large.
The target of series [2] is T1, N NTD-LKR-CTD (SARS-CoV-2, UniProt P0DTC9 44-369). Briefly: fluorescence polarization.
In series [3] the target is T2, N WT (SARS-CoV-2, UniProt P0DTC9 1-419). The experiment in a line: fluorescence polarization.
The target of series [4] is N NTD-LKR (SARS-CoV-2, UniProt P0DTC9 44-247). Briefly: fluorescence polarization.
Series [5] addresses T3, N NTD (SARS-CoV-2, UniProt P0DTC9 44-176). The experiment in a line: fluorescence polarization.
Series [6] has as its target T4, N CTD (SARS-CoV-2, UniProt P0DTC9 248-369). Briefly: fluorescence polarization.
Series [7] concerns the target T4, N CTD. The experiment in a line: fluorescence polarization. This is another data set of the same source.
Series [8] addresses N LKR-CTD (SARS-CoV-2, UniProt P0DTC9 177-369). Briefly: fluorescence polarization.
Series [9] addresses N NTD-LKR;N CTD (SARS-CoV-2;SARS-CoV-2, UniProt P0DTC9;P0DTC9 44-247;248-369, |). The experiment in a line: fluorescence polarization.
The target of series [10] is N NTD;N LKR-CTD (SARS-CoV-2;SARS-CoV-2, UniProt P0DTC9;P0DTC9 44-176;177-369, |). The experiment in a line: fluorescence polarization.
Series [11] addresses T1, N NTD-LKR-CTD. Briefly: fluorescence anisotropy.
Series [12] concerns the target T2, N WT. The experiment in a line: fluorescence anisotropy.
In series [13] the target is T1, N NTD-LKR-CTD. The experiment in a line: fluorescence polarization. The source holds these as a separate data set.
The target in series [14] is T3, N NTD. Briefly: fluorescence polarization. The source holds these as a separate data set.

Several values for one entry are separate records, joined by “and”; a condition that tells them apart may be missing. Equal entries are not always repeated. Where two headings read alike, the source gives them in different places.

As to GGAAGAUUAAUAAUUUUCC (structured_RNA) [19-nt slRNA], the Kd was 100 ± 10 nM in series [1]; 220 ± 20 nM in series [2]; 51 ± 4 nM in series [3]; 2500 nM and 3000 nM in series [4]; 124000 ± 84000 nM in series [5]; 65000 ± 44000 nM in series [6].
As for UUUCACCUCCCUUUCAGUUU (ssRNA) [20-nt ssRNA], the Kd in [1] came out at 6 ± 2 nM; in [7] it was 13000 ± 5000 nM; in [3] it was 7 ± 1 nM; in series [8] it was 350 ± 40 nM; in [4], 500 ± 80 nM; in series [9] it was 440 ± 40 nM. The Kd in series [10] was determined as 720 ± 90 nM; in [11], 6 ± 2 nM; in series [12], 7 ± 1 nM; in [13], 6 ± 2 nM; in series [14] it was 16000 ± 12000 nM.

What is called Kd is a measure of binding affinity in units of concentration. The low end stands for higher affinity, the high end for lower affinity.
